Results published in PMC2270906, “The CD81 Partner EWI-2wint Inhibits Hepatitis C Virus Entry” (PLoS ONE, 2008).

Legend:
[1] = target: T1, CD81 (endogenous, human cells) (human (endogenous in Daudi, Ramos, …, UniProt P60033 1-236)); experiment: cell-based or functional assay
T1 sequence: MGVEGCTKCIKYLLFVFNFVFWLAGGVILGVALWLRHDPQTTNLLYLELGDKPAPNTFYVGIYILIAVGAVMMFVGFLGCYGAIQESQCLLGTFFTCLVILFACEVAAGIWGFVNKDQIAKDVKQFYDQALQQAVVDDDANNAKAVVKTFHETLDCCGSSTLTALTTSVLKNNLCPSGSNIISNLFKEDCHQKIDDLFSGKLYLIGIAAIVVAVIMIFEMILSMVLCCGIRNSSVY

[2] = target: HCV E1E2 heterodimers (expressed from recombinant adenovirus Ad/E1E2p7NS2) (hepatitis C virus); experiment: pull-down; E1E2 on mAb H53 beads; Huh-7/pcDNA3.1 cells lysed in Bj/EDTA, ratio of the CD81 band to that in TX/EDTA
[3] = target: HCV E1E2 heterodimers (expressed from recombinant adenovirus Ad/E1E2p7NS2) (hepatitis C virus); experiment: pull-down; E1E2 on mAb H53 beads; Huh-7/EWI-2FLAG^fur cells lysed in Bj/EDTA, ratio of the CD81 band to that in TX/EDTA

| Binder | inhibition of the infectivity of HCVcc expressing Renilla luciferase on Huh-7 cells expressing EWI-2FLAG^fur (clone A6), relative to Huh-7 cells; the pair that is blocked: HCV glycoproteins with CD81 [1] [%] | ratio [CD81 band intensity in E1E2 IP in Bj/EDTA buffer]/[CD81 band intensity in E1E2 IP in TX/EDTA buffer] [2] | ratio [CD81 band intensity in E1E2 IP in Bj/EDTA buffer]/[CD81 band intensity in E1E2 IP in TX/EDTA buffer] [3] |
| --- | --- | --- | --- |
| EWI-2wint with the C-terminal FLAG epitope, produced by furin cleavage of EWI-2FLAG^fur in Huh-7 cells (domain or fragment) QAPTSPPRMTVHEGQELALGCLARTSTQKHTHLAVSFGRSVPEAPVGRSTLQEVVGIRSDLAVEAGAPYAERLAAGELRLGKEGTDRYRMVVGGAQAGDAGTYHCTAAEWIQDPDGSWAQIAEKRAVLAHVDVQTLSSQLAVTVGPGERRIGPGEPLELLCNVSGALPPAGRHAAYSVGWEMAPAGAPGPGRLVAQLDTEGVGSLGPGYEGRHIAMEKVASRTYRLRLEAARPGDAGTYRCLAKAYVRGSGTRLREAASARSRPLPVHVREEGVVLEAVAWLAGGTVYRGETASLLCNISVRGGPPGLRLAASWWVERPEDGELSSVPAQLVGGVGQDGVAELGVRPGGGPVSVELVGPRSHRLRLHSLGPEDEGVYHCAPSAWVQHADYSWYQAGSARSGPVTVYPYMHALDTLFVPLLVGTGVALVTGATVLGTITCCFMKRLRKR | 80 |  |  |
| CD81 (endogenous, human cells) (natural protein) MGVEGCTKCIKYLLFVFNFVFWLAGGVILGVALWLRHDPQTTNLLYLELGDKPAPNTFYVGIYILIAVGAVMMFVGFLGCYGAIQESQCLLGTFFTCLVILFACEVAAGIWGFVNKDQIAKDVKQFYDQALQQAVVDDDANNAKAVVKTFHETLDCCGSSTLTALTTSVLKNNLCPSGSNIISNLFKEDCHQKIDDLFSGKLYLIGIAAIVVAVIMIFEMILSMVLCCGIRNSSVY |  | 0.84 | 0.27 |
